Where two headings read alike, the source gives them in different places.
System: Rat Retina
Protocol: The following experiment was conducted in order to assess changes in gene expression induced in the retina after intraocular injection of α2 macroglobulin protein. 2 μg of α2 macroglobulin protein was intraocularly injected into the right eye of rats (n=3) and the left eye was used as a control. One rat was tested at Day 3, one rat was tested at Day 7 and one rat was tested at Day 14. Retinas were isolated and mRNA was collected. Samples from each of the rats were studied by gene microassays. Retinas were carefully dissected out to insure that only retinal mRNAs were prepared for gene microarray studies. Samples were obtained from control eyes.
Total RNA was isolated from retinal tissue using TRIZOL® (Life Technologies). RNA was then further purified using the RNAEASY® (QIAGEN®). The integrity of the RNA samples was assessed by running aliquots on RNA 6000 Nano LabChip (Agilent) using the 2100 bioanalyzer (Agilent).
Probe synthesis, hybridization and scanning were done according to Affymetrix protocol, as a service at the McGill University and Genome Quebec Innovation Centre. For the experiments shown, Rat U34 Genome Arrays (8,700 genes, Affymetrix) were used. Briefly, RNA samples were first converted to double stranded cDNA (T7-(dT)24 primer (Genset)). Then the cDNAs were purified and used to generate the biotinylated cRNA probes (Bioarray High Yield RNA transcript labeling kit (Enzo diagnostics)). An aliquot of the purified cRNA was analyzed on RNA 6000 Nano LabChip (Agilent) to verify the integrity and size distribution. Immediately after hybridization the chip was placed in the Affymetrix GeneChip Fluidics Station 400 (Affymetrix). In total, 10 low-stringency washes (63 SSPE, 0.01% Tween-20, 0.005% Antifoam) and 4 high-stringency washes (100 mM MES, 0.1 M NaCl, 0.01% Tween-20, 50 C) were performed (all reagents from Sigma). The array was then incubated with SAPE® (streptavidin/phycoerythrin stain, Molecular Probes), followed by 10 low stringency washes. The array was incubated with biotinylated anti-streptavidin antibody (Vector Laboratories) and washed again with 15 low stringency washes. Specifically bound probe was detected by placing the array in the Agilent GeneArray scanner 2500 (Affymetrix). The scanned images were analyzed using the Microarray Analysis Suite version 5.0 (Affymetrix).
The fold change was analyzed by […] data for the control eye from the data on the eye injected with α2 macroglobulin. A fold change of 2 or greater indicates upregulation. A fold of 0.5 to 2 indicates no change. A fold change of 0.5 or less indicates downregulation.

[1] = gene complexin 2 (1368584_a_at)
[2] = gene crystallin, beta A2 (1388385_at)
[3] = gene crystallin, beta B1 (1369985_at)
[4] = gene crystallin, beta B2 (1367684_at)
[5] = gene crystallin, beta B3 (1367990_at)
[6] = gene crystallin, gamma N (predicted) (1384241_at)
[7] = gene death effector domain-containing (1369003_at)
[8] = gene fibrinogen-like 2 (1392894_at)
[9] = gene forkhead box E3 (1370797_at)
[10] = gene glycoprotein 2 (zymogen granule membrane) (1386933_at)
[11] = gene glycoprotein (transmembrane) nmb (1368187_at)
[12] = gene guanylate nucleotide binding protein 2 (1368332_at)
[13] = gene interferon induced transmembrane protein 1 (predicted) (1372013_at)
[14] = gene lens intrinsic membrane protein 2 (1368493_at)
[15] = gene membrane metallo endopeptidase (1370072_at)
[16] = gene membrane-spanning 4-domains, subfamily A, member 6B (1390510_at)
[17] = gene procollagen, type III, alpha 1 (1370959_at)
[18] = gene procollagen, type IV, alpha 1 (1372439_at)
[19] = gene procollagen, type IV, alpha 1 (1373245_at)
[20] = gene serine (or cysteine) peptidase inhibitor, clade G, member 1 (1372254_at)
[21] = gene similar to Beta crystallin S (Gamma crystallin S) (1388435_at)
[22] = gene similar to FRBZ1 protein (FRBZ1) (predicted) (1398217_at)
[23] = gene similar to Phakinin (Beaded filament structural protein 2) (1383812_at)
[24] = gene similar to RCK (predicted) (1389868_at)
[25] = gene similar to RIKEN cDNA 1300010M03 (predicted) (1376087_at)
[26] = gene similar to RIKEN cDNA 1500009M05 (predicted) (1382193_at)
[27] = gene similar to RIKEN cDNA 4930555G01 (predicted) (1391152_at)
[28] = gene similar to RNA-binding protein Musashi2-S (predicted) (1390813_at)
[29] = gene similar to keratin complex 2, basic, gene 6a (1373349_at)
[30] = gene similar to mKIAA1450 protein (predicted) (1391315_at)
[31] = gene similar to serine (or cysteine) proteinase inhibitor (1388746_at)
[32] = gene solute carrier family 6 (neurotransmitter transporter, GABA) (1369715_at)
[33] = gene solute carrier family 6 (neurotransmitter transporter, taurine) (1368778_at)
[34] = gene spectrin alpha 1 (1386212_at)

B1: α2m: α2 macroglobulin protein injected intraocularly into normal rat eyes (protein, UniProt P06238 28-1472, looked up)
Alpha-2-macroglobulin: SAPQKPIYMVMVPSLLHAGTPEKACFLFSHLNETVAVRVSLESVRGNQSLFTDLVVDKDLFHCTSFTVPQSSSDEVMFFTVQVKGATHEFRRRSTVLVKKKESLVFAQTDKPIYKPGQTVRFRVVSLDESFHPLNELIPLLYIQDPKNNRIAQWQNFNLEGGLKQLSFPLSSEPTQGSYKVVIRTESGRTVEHPFSVEEFVLPKFEVRVTVPETITILEEEMNVSVCGIYTYGKPVPGRVTVNICRKYSNPSNCFGEESVAFCEKLSQQLDGRGCFSQLVKTKSFQLKRQEYEMQLDVHAKIQEEGTGVEETGKGLTKITRTITKLSFVNVDSHFRQGIPFVGQVLLVDGRGTPIPYETIFIGADEANLYINTTTDKHGLARFSINTDDIMGTSLTVRAKYKDSNACYGFRWLTEENVEAWHTAYAVFSPSRSFLHLESLPDKLRCDQTLEVQAHYILNGEAMQELKELVFYYLMMAKGGIVRAGTHVLPLKQGQMRGHFSILISMETDLAPVARLVLYAILPNGEVVGDTAKYEIENCLANKVDLVFRPNSGLPATRALLSVMASPQSLCGLRAVDQSVLLMKPETELSASLIYDLLPVKDLTGFPQGADQREEDTNGCVKQNDTYINGILYSPVQNTNEEDMYGFLKDMGLKVFTNSNIRKPKVCERLRDNKGIPAAYHLVSQSHMDAFLESSESPTETRRSYFPETWIWDLVVVDSAGVAEVEVTVPDTITEWKAGAFCLSNDTGLGLSPVVQFQAFQPFFVELTMPYSVIRGEAFTLKATVLNYLPTCIRVAVQLEASPDFLAAPEEKEQRSHCICMNQRHTASWAVIPKSLGNVNFTVSAEALNSKELCGNEVPVVPEQGKKDTIIKSLLVEPEGLENEVTFNSLLCPMGAEVSELIALKLPSDVVEESARASVTVLGDILGSAMQNTQDLLKMPYGCGEQNMVLFAPNIYVLDYLNETQQLTQEIKTKAIAYLNTGYQRQLNYKHRDGSYSTFGDKPGRNHANTWLTAFVLKSFAQARKYIFIDEVHITQALLWLSQQQKDNGCFRSSGSLLNNAMKGGVEDEVTLSAYITIALLEMSLPVTHPVVRNALFCLDTAWKSARGGAGGSHVYTKALLAYAFALAGNQDTKKEILKSLDEEAVKEEDSVHWTRPQKPSVSVALWYQPQAPSAEVEMTAYVLLAYLTTEPAPTQEDLTAAMLIVKWLTKQQNSHGGFSSTQDTVVALHALSKYGSATFTRAKKAAQVTIHSSGTFSTKFQVNNNNQLLLQRVTLPTVPGDYTVKVTGEGCVYLQTSLKYSVLPREEEFPFTVVVQTLPGTCEDPKAHTSFQISLNISYTGSRSESNMAIADVKMVSGFIPLKPTVKMLERSVHVSRTEVSNNHVLIYLDKVSNQTVNLSFTVQQDIPIRDLKPAVVKVYDYYEKDEFAVAKYSAPCSTDYGNA
- Fold Change (α2m vs normal) Day 7 (gene complement factor B (1389470_at)): 3.3
- Fold Change (α2m vs normal) Day 3 [1]: 0.5
- Fold Change (α2m vs normal) Day 7 [1]: 0.2
- Fold Change (α2m vs normal) Day 3 [2]: 0.5
- Fold Change (α2m vs normal) Day 7 [2]: 3.6
- Fold Change (α2m vs normal) Day 14 [2]: 2.0
- Fold Change (α2m vs normal) Day 3 [3]: 0.5
- Fold Change (α2m vs normal) Day 7 [3]: 3.4
- Fold Change (α2m vs normal) Day 14 [3]: 2.0
- Fold Change (α2m vs normal) Day 3 [4]: 0.4
- Fold Change (α2m vs normal) Day 7 [4]: 3.7
- Fold Change (α2m vs normal) Day 14 [4]: 2.2
- Fold Change (α2m vs normal) Day 3 [5]: 0.4
- Fold Change (α2m vs normal) Day 7 [5]: 4.2
- Fold Change (α2m vs normal) Day 14 [5]: 2.0
- Fold Change (α2m vs normal) Day 3 [6]: 0.5
- Fold Change (α2m vs normal) Day 7 [6]: 3.9
- Fold Change (α2m vs normal) Day 3 [7]: 0.5
- Fold Change (α2m vs normal) Day 7 [7]: 0.4
- Fold Change (α2m vs normal) Day 3 (gene decorin (1370956_at)): 3.7
- Fold Change (α2m vs normal) Day 7 (gene decorin (1370956_at)): 12.6
- Fold Change (α2m vs normal) Day 3 [8]: 2.1
- Fold Change (α2m vs normal) Day 7 [8]: 2.1
- Fold Change (α2m vs normal) Day 3 [9]: 0.4
- Fold Change (α2m vs normal) Day 7 [9]: 2.9
- Fold Change (α2m vs normal) Day 14 [9]: 2.2
- Fold Change (α2m vs normal) Day 3 [10]: 0.5
- Fold Change (α2m vs normal) Day 7 [10]: 2.1
- Fold Change (α2m vs normal) Day 3 [11]: 3.9
- Fold Change (α2m vs normal) Day 7 [11]: 7.4
- Fold Change (α2m vs normal) Day 3 [12]: 2.2
- Fold Change (α2m vs normal) Day 7 [12]: 2.1
- Fold Change (α2m vs normal) Day 3 [13]: 5.8
- Fold Change (α2m vs normal) Day 7 [13]: 4.2
- Fold Change (α2m vs normal) Day 3 [14]: 0.5
- Fold Change (α2m vs normal) Day 7 [14]: 2.5
- Fold Change (α2m vs normal) Day 3 (gene lumican (1367749_at)): 6.1
- Fold Change (α2m vs normal) Day 7 (gene lumican (1367749_at)): 4.1
- Fold Change (α2m vs normal) Day 14 (gene lumican (1367749_at)): 0.4
- Fold Change (α2m vs normal) Day 3 (gene lysozyme (1370154_at)): 7.8
- Fold Change (α2m vs normal) Day 7 (gene lysozyme (1370154_at)): 2.8
- Fold Change (α2m vs normal) Day 3 [15]: 0.5
- Fold Change (α2m vs normal) Day 7 [15]: 5.3
- Fold Change (α2m vs normal) Day 14 [15]: 2.2
- Fold Change (α2m vs normal) Day 3 [16]: 5.1
- Fold Change (α2m vs normal) Day 7 [16]: 2.1
- Fold Change (α2m vs normal) Day 3 [17]: 3.7
- Fold Change (α2m vs normal) Day 7 [17]: 3.4
- Fold Change (α2m vs normal) Day 3 [18]: 0.3
- Fold Change (α2m vs normal) Day 7 [18]: 17.5
- Fold Change (α2m vs normal) Day 14 [18]: 2.4
- Fold Change (α2m vs normal) Day 3 [19]: 0.3
- Fold Change (α2m vs normal) Day 7 [19]: 13.2
- Fold Change (α2m vs normal) Day 14 [19]: 2.3
- Fold Change (α2m vs normal) Day 3 [20]: 3.0
- Fold Change (α2m vs normal) Day 7 [20]: 3.3
- Fold Change (α2m vs normal) Day 3 [21]: 0.5
- Fold Change (α2m vs normal) Day 7 [21]: 2.8
- Fold Change (α2m vs normal) Day 14 [21]: 2.9
- Fold Change (α2m vs normal) Day 3 [22]: 0.5
- Fold Change (α2m vs normal) Day 7 [22]: 0.2
- Fold Change (α2m vs normal) Day 3 [23]: 0.4
- Fold Change (α2m vs normal) Day 7 [23]: 2.7
- Fold Change (α2m vs normal) Day 3 [24]: 0.5
- Fold Change (α2m vs normal) Day 7 [24]: 0.2
- Fold Change (α2m vs normal) Day 3 [25]: 0.5
- Fold Change (α2m vs normal) Day 7 [25]: 0.4
- Fold Change (α2m vs normal) Day 3 [26]: 0.4
- Fold Change (α2m vs normal) Day 7 [26]: 0.2
- Fold Change (α2m vs normal) Day 3 [27]: 2.0
- Fold Change (α2m vs normal) Day 7 [27]: 5.6
- Fold Change (α2m vs normal) Day 3 [28]: 0.5
- Fold Change (α2m vs normal) Day 7 [28]: 0.2
- Fold Change (α2m vs normal) Day 3 [29]: 7.3
- Fold Change (α2m vs normal) Day 7 [29]: 0.4
- Fold Change (α2m vs normal) Day 3 [30]: 0.5
- Fold Change (α2m vs normal) Day 7 [30]: 0.2
- Fold Change (α2m vs normal) Day 3 [31]: 0.4
- Fold Change (α2m vs normal) Day 7 [31]: 2.6
- Fold Change (α2m vs normal) Day 3 [32]: 0.5
- Fold Change (α2m vs normal) Day 7 [32]: 0.4
- Fold Change (α2m vs normal) Day 3 [33]: 0.5
- Fold Change (α2m vs normal) Day 7 [33]: 0.2
- Fold Change (α2m vs normal) Day 14 [33]: 2.3
- Fold Change (α2m vs normal) Day 3 [34]: 0.5
- Fold Change (α2m vs normal) Day 7 [34]: 2.1
- Fold Change (α2m vs normal) Day 3 (gene — (1393766_at, AI112375)): 0.4
- Fold Change (α2m vs normal) Day 7 (gene — (1393766_at, AI112375)): 0.3
- Fold Change (α2m vs normal) Day 14 (gene — (1393766_at, AI112375)): 3.6
- Fold Change (α2m vs normal) Day 3 (gene — (1394837_at, BF405797)): 0.3
- Fold Change (α2m vs normal) Day 7 (gene — (1394837_at, BF405797)): 0.2
- Fold Change (α2m vs normal) Day 3 (gene — (1395129_at, BE107340)): 0.5
- Fold Change (α2m vs normal) Day 7 (gene — (1395129_at, BE107340)): 0.3

Reference: patent US8563520B2, “Treatment of ocular disease with inhibitors of alpha2 macroglobulin protein” (McGill University, priority 2005, dated 2013)
